This series is described as follows: soluble on expression in E. coli; label from the status in PepcDB or PDB records.
On to “MTGVLVGCSVEKTNTNKVNIDKVEIVAPNVQGAGWDLTARAMQKTLTEEKIFTKPITVTNKVGGSGDVGWKYTKQKGGHVLAINSSLLITNNLLGHSKLTYKDFTPLATLASDWEVVVVSKDSNIENANQLMEQLKQNKKNFKIGVAPGLGNDDHLSFVQVSKAFGINPAELQFFVYENKEKIISALTNKQINAATMTLSEAEKQYKAGKIKILAVSAPKRIDRLPQIPTWKEQGIDVIFQHWKGIMGPKDMTEEEVAYWDDVIKRMVESDSWKGILRERGWESFYKGSGESSGWYGGMIKTEKVDEEGSYRMRFLGLFIGNLIYS”, for which the “soluble on expression in E. coli” value was “not soluble”.
For “MSLYKLIALDMDGTLLNDDKIISKRNKEAIKKAKNLGYKVVLSTGRPLKGVERYLKELDLVNDDDYAIAFNGGLVQNTKTGEVLGKELMKFEDLDRLYKLSQKFNVNIHMLSINECITPKKNPYTEVEVNINQIPLIEKNFNELPHDTVIVKIMMIDSKEKLDKVEKLLPKEIYDDYSVARSSDIFLEFSPKGVHKGVGLKILSEHLNLKKEELIAVGDAGNDIAMIEYAGLGVAMGNAFPYVKESADYVTDNNETHGVAKVIEKFMLNEGHHHHHH” the value was “soluble”; for “MNTPNSSCTILFENLYDNDLALKLFNNRTIVDNILRNVKGDINNRLELRLVNKSFNLAAIHVIRKENRTVVFHKFNRCDRLHKISPCPDCSVHLNSVKLNKKNIFQYARFLKQTMKIMVIKIRIEDSKRVCCMITDVHQVIHKSLIGSDYDKVEEFVGIDQISFSTCIPCEKIAANCKVFGPVQNDMFNAILRLKHHYDVLQVKDMRLYKLMILNKEDPTVVEDFINSNITCSKLTIFLMYMYEKEAFGYSLPREFLDLLIKKWNVKTVEIVPRQDQPIPYYFHCNTDFIVPKAKFYVDYWTQPRSKYTLDGVEIDLQLTKVVEQQIKNRKSLFDNFIANARRIFPSNKITVRFSKEVCQEMMSQGNVEDFISGIILMTQKDAQPNSHISLKLYPEEVDAPLIDSFLRENFEKKFDSWNLETVSDSSANLPAEKCYQFFNQSTNCKIIFYICC”, “not soluble”.
For “MGSDKIHHHHHHLMCCASRSVPRWPDNIFTEFLSPKRALGPEPCRPRMTPFWRAGQLCPSVQDRRVFSCEPPCAVFPRWRTMRRAYLLKQEVLPMKISVIGASRGIGRKVVEEALERGHSVTGMARSATSLGIDHAEFTAIDGDATNATDVTQAIDGADAVILTLGVPKDARVLKSTTLFSDATRTLITAMEEAGIKRLLTVTGFGAGDSKEKLSTPERLTQKAFLGRAYADKDLQEKLIRDSDLDWTIARPGILSDNRKSNAYKVLVEKETWRNGLINRSDVADFLVTAAEDESHIHKTPALQR” the value was “not soluble”; for “VQVGNCLQVMWLADRHSDPELYTAAKHCAKTHLAQLQNTEEFLHLPHRLLTDIISDGVPCSQNPTEAIEAWINFNKEEREAFAESLRTSLKEIGENVH”, “soluble”; for “MSLDPAHTPDPAHPHDQEAAHAEDPARAIGSARLLDVDPLLDDPGTRIVVCCGSGGVGKTTTAAALGLRAAERGRKVVVLTIDPARRLAQSMGIDSLDNIPRRVKGIDDSASGELHAMMLDMKRTFDEIVEAHADRERAAAILSNPFYQSLSAGFAGTQEYMAMEKLGQLRARDEWDLIIVDTPPSRSALDFLDAPKRLGSFLDGKLIRLLTAPAKLGGRAGMKFLNVGMSMMTGTLGKLLGGQLLKDVQTFVAAMDTTFGGFRTRADATYKLLQAPGTAFLVVAAPERDALREAAYFVERLAAEDMPLAGLVLNRVHGSGAAQLSAERALAAAENLDLAADPGSTENLEESRIVDQEGGKAGLRNSPDTYGSSESPADLTPADQTPASSEGSPATDGAVEQLTAGLLILHAERMQLLSREQRTRDRFAALHPEVAVAEVAALPGDVHDLTGLRDIGDRLAANRPELPTSPGGALEHHHHHH”, “soluble”.
As for “PCFALTGPEAGSDAGGIPDQGVVCYGMYDGEEVLGVRVSWNKRYITLAPVATVLGLAFKLQDPDGLLGDKKDVGITCALIPADHDGVEIGERHDPLGSAFMNGPTRGEDVFIPMDWLIGG”, the entry is “not soluble”; as for “MMKVYRLYLRDEYLEMVKSGKKRIEVRVAYPQLKGMKRGDKIIFNDEVPAEVIEVKHYETFRQVLREEPIDKIFPDEPSFERALRRFHNLYPKWKENRYGVIAIKFKLLGRERK”, “soluble”; as for “MAHHHHHHMQDEAVRAALQSGVWREKKDPKSGKTYYVNVQTRVSVWNLAKELARLQQQQKFTEEMELRKQKKLRSLAEERQAQAKKWQEEEEALMQRMAELEREKARLESEITILQGPTEVEAASLQEEQSRLLDAKQSLELIVSEELRKRRESAAELQQLQARLEALRQERQEELGMFESLRKRLEQLRQEHAEALADLQREEAVEESLREELQREERQLEDALHEEVRLKELLKMREDEVDRMKAELKAVCQRKAELQQQHQRLLEEVAESAMGAAEDTLQEPPPSSSLLLSHLQREVANRKKSLRHLMQQQRLAKEAEWMEAESAELRRFTALAEREAQRLAQFSRELSDQVRAVTPLLEAVKHDVQQLEEEMEELR”, “soluble”.
With “MIGRERMTVASQRLIAERTYELTLSGRLVQEMRQPGQFVHVKVAASADPLLRRPLSLCHIDHKQGQCTIIYRQEGKGTALLAQKQPGDTVDVLGPLGNGFPLEAAPADSRALLVGGGIGVPPLYELAKQLTKRGVKVVSVLGFQTKAAVFYEEEFAAFGETHVATDDGSHGTAGRVTDVIEARSLEFDVLYACGPKPMLRALAERFPNRPVYLSLEERMGCGVGACFACVCHVPGSETAYKKVCSDGPVFRAGEVVL”, the “soluble on expression in E. coli” value is “soluble”.
For “MGSDKIHHHHHHMAVGKNNNKMGKKGGKKKAVDPFSRKEWYDIKAPNMFNTRQVGKTLINRTQGTKIASEGLKGRVFEVSLGDLNNSEADFRKFKLIAEDVQGKNVLTNFHAMSMTHDKLCSIVKKWHTLIEANTAVKTTDGYTLRVFVIAFTKKSVNQVKKTSYTKTSKIRKIRSEMIGCIEKEVTGCDLKEVVSKLIPDSIGKDIEKTCSKLYPLQEVYIRKVKIIKRPKVDLGRLHDLHGDSITVGADGEKVDRPDDYEPPVQQEV” the value was “not soluble”; for “MGSDKIHHHHHHMENESKLVEVDEKHLQFRVAREAFVSEQILSGEYEKIFDRCWLYVGHVSEFSKPGDFVTRTIARRNLLVTMGTDNRINAFFNTCPHRGATVCRDRAGNSKNFQCFYHGWVFGCDGNLKSQPGKDRYCADFIASGAGNLVSVPRFDIYAGFCFVSFNAEVEPLPDYLAGAKEYLDLVSRYSESGMAISSGTQEYAIRANWKLLVENSVDGYHAVSTHATYLDYLKNTNGSLSSTKLEGTSYDLGNGHAVLEYTAPWGRPIASWVPLWGEQGKKEIDQIYARLVELHGEDMADRMAHKNRNLLIFPNLVVNDIMAITVRTFYPQAPNYMLVNGWSLAPREESEWAKKFRLSNFLEFLGPGGFATPDDVEALESCQNGFSNYRLVPWSDISKGMGKASPNYDDELQMRAFWTRWNQYISGSPSPQATIRRLPSATAA”, “not soluble”; for “MQNTIIQKAVNKDLNSILEITKDALNAMKTMNFHQWDENYPNEIVFQEDIQAQELYVFKENDEILGFICINEKFKPEFYKQVIFNKNYDDKAFYLHRLAVKQNAKGKGVAQKLLNFCENFALENHKASLRADTHSKNFPMNSLFKKLDFNFCGNFDIPNYQDPFLAYEKILNQKAF”, “not soluble”.
As for “MELTMAKELIFIDWDDTLVNRENAEDFESVTDENNTIYQMSPMFIGAVEALKQLQEKYHVVIVSSRGDLNRLRQLQLQSYDLESSIMPLENFTFEDNDNRLLFTRYGETNFPDKASFILYIQKMSGNKIKVFIDDDHTEIEAAQSKGIPTIHATHNKYLQNTEQFFSGLIHQVDNMELSHIFNKVAAEIRNNSRSISWGRQIAGFFSVHLPIAQSLENLASKLQRKSANEVSEEFDQYLKKIAYDPNKKGDIAVSLTKAKTAIDKHISAPIEIKEDQPFLNRMI”, the entry is “not soluble”; as for “MLLSIITVAFRNLEGIVKTHASLAHLAQAEDISFEWIVVDGGSNDGTREYLENLNGIYNLRFVSEPDNGIYDAMNKGIAMAQGKFALFLNSGDIFHQDAAYFVRKLKMQKDNVMITGDALLDFGDGHKIKRSAKPGWYIYHSLPASHQAIFFPVSGLKKWRYDLEYKVSSDYALAAKMYKAGYAFKKLNGLVSEFSMGGVSTTNNMELCADAKKVQRQILHVPGFWAELSWHLRQRTTSKTKALYNKS”, “not soluble”; as for “MVADIELDAAQSIAAVLFDKDGTLLGYDASWGPVNRELASIAAKGDAALADRLLAACGMDPVTGHVVPDSLLAAGNTAEIAAGLVAAGSSCDVVELTQRLDRLFTEAADKSVPVTDLKAFFARLKARGYKLGIASSDNENSIRQTAIRFGFEEDIDFVAGYDSGYGTKPQPGMVLGFCEAIGFPPERVAVVGDNNHDLHMAKNAGAGLRIAVLTGTGSRESLGADAHYCFDDITGLEALLPERAV”, “not soluble”.
Take “MGSDKIHHHHHHVVAEAVNLQFDYSRYGFRQEERYVYKAPKGLNERIVRELSGMKGEPEWMLKRRLRALEIFNKKPTPLVGTWANPELAELNYDDIHYFVRANERPQTDWDAVPPEIKNTFERLGIPEAERKFLAGVGAQYESEVVYHSLREEWAKQGVIFLDTDTALKEYPEFFKEYFGTIVPAADNKYAALNTAVWSGGSFVYVPKGVKVDIPLQAYFRINAERMGQFERTLIIIDEGAEAHYIEGCTAPIYSTNSLHSAVVEVIVKKGGKFRYTTIQNWANNIFNLVTKRAVAYEEASMEWVDGNIGSKLTMKYPSVYLMGRKARGEVLSVAYAGRGQHQDAGAKMIHLAPETTSRITNKSVSKDGGKTTYRGLAKVAPGAYGAKINVNCDALILDEHSASDTIPYIEIEEDRCTLAHEATVGRIGAEQLFYLMSRGISESDALSMIVLGFMEPFTRELPMEYAVELNRLIQLEMEGSVG”: the “soluble on expression in E. coli” value is reported as “not soluble”.
For “MGKTNLAPGFRFHPTDVELVRYYLKRKVMGKKFQVDAIAEVDIYKFEPPDLPDKSCLGTGDLKWYFFCPREKKYPKGGKANRSTECGYWKTTGRDRDVSYNDEVTGKIRTLIYHYGKIPRGDRTDWVIHEYRLEDKVLAQKNVPQDTYVLCVLFKKNGLGPRHGSQYGAPFKEEDWSDKEEEYTQNHLVAGPSKETSLAAKASHSYAPKDGLTGVISESCVSDVPPLTATVLPPLTSDVIAYNPFSSSPLLEVPQVSLDGGELNSMLDLFSVDNDDCLLFDDFDYHNEVRHPDGFVNKEAPVFLGDGNFSGMFDLSNDQVVELQDLIQSPTPHPPSPPAQASIPDDSRSNGQTKDD”, the “soluble on expression in E. coli” value is recorded as “soluble”.
Take “MIQQESRLKVADNSGAREVLVIKVLGGSGRRYANIGDVVVATVKDATPGGVVKKGQVVKAVVVRTKRGVRRPDGSYIRFDENACVIIRDDKSPRGTRIFGPVARELRDKDFMKIISLAPEVI”: the “soluble on expression in E. coli” value is reported as “soluble”.
Take “MPAILETNPIAIRACILYEVRQKRPIFESFKNFCNAFGNDFMEYREFERWFYRFYHGNEDLDYDMSREPKTASLSELPIEILFKIVENLNFLDRLLLRNVSPCFRSIAEDHVNEVTNISVTSIPNHVHVCFYHESDYTDIICKRVDDDCVITKMSQYEDSKDWKIEGVSHVTVALNYLSRVLKSPKLKLEKLRLDFLEHNKEDTQCMEELLTVLENSEPHVLNIEFEGLNFHETSSVLKNLKNVEEIQLSMYSIQELSGIEKLVELEQWKTAKTLDISSHEDIEMDIKDLLHFQSIDVRLKSFSVQDAVKVKETLELRTSDFRSGTFRVLNTDTRKIGKVFNPKYTDAANNTFNFKTKNSSFEITMCSKEIYVKRKL”: the “soluble on expression in E. coli” value was “not soluble”.
For “TLAGRIVLVKIEPLSFSEFCKLKGHEVPYEKVAYARDILSPMLMEYIEKGGFPELVWENDPYKIRSYVRSIVIDRIVTRDIPQEFGIR”, the “soluble on expression in E. coli” value is “not soluble”.
